Data: the supplement of paper PMC9732359
± gives the uncertainty stated by the source.

Experiment: protein stability index of a GFP-peptide fusion (yeast GPS) (PSI 1-4); higher = more stable; sorted into four equal gates, so the index is relative within each strain
Summary of the method: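 Tiled 17-residue peptides from yeast proteins were fused downstream of GFP on a plasmid that also expresses Cherry, and the pooled library was carried in yeast. Mid-log cultures grown in leucine-free medium were sorted into four equal gates by GFP/Cherry fluorescence ratio. Plasmids from each gate were PCR-amplified and Illumina-sequenced, and reads were assigned to strains by barcodes. Each peptide's protein stability index is the sum, over gates, of the gate's read frequency multiplied by its gate number.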

Sequence | protein stability index (doa10∆) | protein stability index (pdr5∆) | protein stability index (san1∆) | protein stability index (ubr1∆)
VDENETVLESLGRLNKL [LIN1] | 2.79 ± 0.075 | 3.03 ± 0.073 | 2.88 ± 0.069 | 3.03 ± 0.053
ASLKHDNETKAMLINLI [RPN3] | 2.85 ± 0.28 | 3.21 ± 0.27 | 2.8 ± 0.13 | 2.77 ± 0.29
YIKYNILLTSISRERDL [SRP68] | 1.69 ± 0.07 | 1.58 ± 0.062 | 1.83 ± 0.12 | 1.91 ± 0.094
QRVFKPVDITMMENYQN [PRP8] | 2.43 ± 0.063 | 2.27 ± 0.074 | 2.71 ± 0.073 | 2.41 ± 0.048
IGVETGSEPLIQQVVEY [PRP28] | 2.99 ± 0.065 | 3.08 ± 0.084 | 2.95 ± 0.067 | 2.73 ± 0.16
KVDATPEESKPINLQNG [YLR335W/NUP2] | 2.9 ± 0.088 | 2.95 ± 0.079 | 2.8 ± 0.06 | 3.21 ± 0.049
PLNVLQDQYKEGIKVVD [SNF2] | – | 2.46 ± 0.11 | 1.78 ± 0.092 | 2.62 ± 0.093
EDSMIMNQSSIDRGLFR [RPB2] | 2.55 ± 0.08 | 2.61 ± 0.093 | 2.62 ± 0.098 | 2.91 ± 0.065
RRRREGKTDYYQRKRLV [RPL5] | 3.31 ± 0.094 | 3.26 ± 0.079 | 3.13 ± 0.046 | 3.26 ± 0.035
NDIHLRFMRFLADRDEF [ECM29] | 2.44 ± 0.065 | 2.24 ± 0.059 | 2.21 ± 0.16 | 2.5 ± 0.038
EISLKAHCILGIGGDHA [RPC40] | 1.16 ± 0.18 | 1.3 ± 0.16 | 1.28 ± 0.3 | –
GIFLHGKIPTLKISLIQ [PRP8] | 2.26 ± 0.042 | 2.03 ± 0.035 | 1.79 ± 0.053 | 1.78 ± 0.029
NAANVPVENIWADIFAK [RPP1A] | 2.2 ± 0.083 | 2.51 ± 0.11 | 2.48 ± 0.1 | 2.34 ± 0.081
NILLRERDSYKLLASTE [YIL149C/MLP2] | 2.59 ± 0.058 | 2.53 ± 0.055 | 2.49 ± 0.063 | 2.4 ± 0.055
DKPYLLRIVTHLAICLD [YDL116W/NUP84] | 1.33 ± 0.078 | 1.28 ± 0.08 | 1.32 ± 0.13 | 1.58 ± 0.058
VSLEERTKNLVSKMEKA [SMC4] | – | 2.95 ± 0.064 | – | –
YEYAEHDLLQIIHFHSH [SSN3] | 2.31 ± 0.062 | 2.59 ± 0.054 | 2.5 ± 0.045 | 2.63 ± 0.04
VQGMNDDIFIRYLTLLS [ECM29] | 1.37 ± 0.053 | 1.39 ± 0.057 | 1.8 ± 0.14 | 1.15 ± 0.031
TESITHDSSNGLFQVLH [NUT1] | 3.12 ± 0.073 | 3.22 ± 0.061 | 2.99 ± 0.058 | 3.17 ± 0.041
MDVDSVKTTLVSLTQLR [RPC82] | 2.57 ± 0.1 | 1.81 ± 0.074 | 2.08 ± 0.12 | 1.5 ± 0.093
HIFQVEYALEAVKRGTC [PRE6] | 2.76 ± 0.15 | 2.75 ± 0.13 | 2.54 ± 0.19 | 2.77 ± 0.19
LLDVVKGTEASNDIIDK [YDL116W/NUP84] | 2.08 ± 0.19 | 2.51 ± 0.14 | 1.92 ± 0.15 | 1.47 ± 0.041
LYPIFLLDDKKLMDEDS [YJR042W/NUP85] | 2.01 ± 0.09 | 1.84 ± 0.14 | 1.38 ± 0.29 | 1.66 ± 0.057
RDMTYSAPIYVDIEYTR [RET1] | 2.17 ± 0.092 | 1.98 ± 0.083 | 1.79 ± 0.14 | 1.81 ± 0.069
LARACAAQTNATFLKLA [RPT5] | 2.76 ± 0.13 | 2.93 ± 0.089 | 2.93 ± 0.099 | 2.6 ± 0.27
ENLPGLSISVAAEPMDS [SNU114] | 2.7 ± 0.062 | 2.91 ± 0.079 | 2.83 ± 0.074 | 3.17 ± 0.095
TKWGLINYQVDSKLLPK [SWI3] | 2.8 ± 0.11 | 2.41 ± 0.12 | 1.92 ± 0.15 | 2.55 ± 0.077

Sequence | protein stability index (doa10∆) | protein stability index (pdr5∆) | protein stability index (san1∆) | protein stability index (ubr1∆)
KHGTYDKLDDDGLIAPG [RPB2] | 3.02 ± 0.21 | 2.92 ± 0.24 | – | –
NAIFQMESEEVPLTKRY [PCI8] | 2.81 ± 0.05 | 2.82 ± 0.045 | 2.85 ± 0.038 | 3.08 ± 0.044
NFTCNRKILNFKKDLVI [SWI1] | 2.66 ± 0.081 | 2.88 ± 0.063 | 2.46 ± 0.1 | 2.87 ± 0.075
GRDAFHLRVRVHPFHVL [RPL10] | 1.7 ± 0.061 | 2 ± 0.077 | 1.86 ± 0.11 | 2.09 ± 0.048
CRVCSSHTGLVRKYDLN [RPS29B] | 2.56 ± 0.058 | 2.33 ± 0.059 | 2.38 ± 0.079 | 1.94 ± 0.047
DFKEVEDFLHFIVAEYI [SRB4] | 2.73 ± 0.071 | 3.22 ± 0.11 | 3.13 ± 0.056 | 3.14 ± 0.056
DDNNNNNNNNNNNNSTR [GRR1] | 2.95 ± 0.045 | 3.02 ± 0.042 | 2.95 ± 0.041 | 3.03 ± 0.054
KPYVDRFAFSVIWELDD [DIS3] | 1.93 ± 0.046 | 1.98 ± 0.047 | 2.15 ± 0.05 | 2.38 ± 0.034
GVDPTGSHLFSIHAHGS [PUP1] | 2.31 ± 0.1 | 2.52 ± 0.15 | 2.5 ± 0.11 | 2.06 ± 0.12
TNVPKAKKRKTLILIQN [SIR3] | 1.67 ± 0.18 | 1.63 ± 0.12 | 1.33 ± 0.22 | 1.4 ± 0.1
FAQGKRRYDRKQSGFGG [RPL42A] | 3.6 ± 0.25 | 3.57 ± 0.28 | 3.06 ± 0.29 | 3.34 ± 0.061
NIKKKDTKDALSTRELA [RPC53] | – | – | – | 2.7 ± 0.29
IVVVIEIITSLSMRFQR [SRB8] | 2.5 ± 0.12 | 2.71 ± 0.092 | 2.18 ± 0.084 | 2.06 ± 0.087
EESISKFPDMGSLWVEF [RPB5] | 2.53 ± 0.073 | 2.98 ± 0.1 | 2.77 ± 0.1 | 2.71 ± 0.1
QKRQLHDISKTETSNED [SNU114] | 3.06 ± 0.049 | 2.97 ± 0.045 | 2.98 ± 0.039 | 3.044 ± 0.03
VPTIGVVNSNFAKEHNA [YJR042W/NUP85] | 2.51 ± 0.072 | 2.61 ± 0.075 | 2.59 ± 0.058 | 2.54 ± 0.034
VYESEMEQCKQRYQDLS [YIL149C/MLP2] | 3.27 ± 0.09 | 3.36 ± 0.11 | 3.03 ± 0.081 | 3.24 ± 0.094
TTILSFSSPAALMKTLI [NUT1] | 1.65 ± 0.047 | 1.75 ± 0.05 | 2.09 ± 0.1 | 1.78 ± 0.054
FYDYIKERSIVVGRTTR [REC8] | 1.9 ± 0.077 | 1.72 ± 0.064 | 1.22 ± 0.13 | 1.17 ± 0.045
VNASVDVDQHGNDNNSD [SWI3] | 3.13 ± 0.085 | 3.46 ± 0.081 | 3.52 ± 0.059 | 3.3 ± 0.038
YLGEGPRMVRDVFRLAR [RPT3] | 2.79 ± 0.14 | 2.96 ± 0.053 | 2.8 ± 0.14 | 2.88 ± 0.09
TIYNNIREGQNQKIPDN [SIR3] | 2.96 ± 0.05 | 3.18 ± 0.064 | 2.98 ± 0.056 | 3.02 ± 0.045
SELQRLSHENNVMLEKI [RPT5] | 3 ± 0.11 | 3.1 ± 0.068 | 2.89 ± 0.063 | 2.9 ± 0.051
SKLMPVLKSSVYEYVIA [RPC82] | 1.42 ± 0.061 | 1.57 ± 0.059 | 1.25 ± 0.1 | 1.46 ± 0.056
KKRSKVRKETYSSYIYK [HTB2] | 3.15 ± 0.074 | 3.33 ± 0.066 | 3.14 ± 0.071 | 3.38 ± 0.052
NDANITSNKEGFNSIWK [SSN2] | 3.17 ± 0.077 | 3.26 ± 0.079 | 3.3 ± 0.051 | 3.09 ± 0.069
